Drawing on the supplement of paper PMC10567573, this text covers protein stability index for 94 variants.

Sequences and labels used below:
B1: PBXIP1 (parent)
chain: LPVETLGPASRMDPESERALQAPH
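Further: lentivirally expressed fusions sorted by FACS into six bins by GFP to DsRed ratio, PSI derived from sequencing read proportions per bin multiplied by bin number.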

In the data set the parent is B1. The experiment in a line: protein stability index of a GFP-peptide fusion (GPS, HEK-293T) (PSI 1-6); higher = more stable. The settings on record: c terminus: a fixed tail appended.
As for LPVETLGPASRMDPESERALQADH, the protein stability index amounted to 4.6. LPVETLGPASRMDPESERALQANH: the protein stability index was 4.26. In the case of LPVETLGPASRMDPESERALQASH it was 4.78; in that of LPVETLGPASRMDPESERALQACH, 4.19; in that of LPVETLGPASRMDPESERALQAVH, 3.92. Consider LPVETLGPASRMDPESERALQARH, for which the protein stability index was determined as 4.66. In the case of LPVETLGPASRMDPESERALQAKH it was 4.57; in that of LPVETLGPASRMDPESERALQAFH, 3.98. Consider LPVETLGPASRMDPESERALQAWH, for which the protein stability index was found to be 3.92. On to LPVETLGPASRMDPESERALQYPH, for which the protein stability index came out at 4.31.

LPVETLGPASRMDPESERALQIPH: the protein stability index is 4.23.

With LPVETLGPASRMDPESERALQKPH, the protein stability index was 4.4. LPVETLGPASRMDPESERALQGPH: the protein stability index came out at 4.72. For the variant LPVETLGPASRMDPESERALQSPH, the protein stability index stood at 4.36.

Regarding LPVETLGPASRMDPESERALQPPH, the protein stability index is 4.27. The figure for LPVETLGPASRMDPESERALQLPH is 3.98.

Turning to LPVETLGPASRMDPESERALQCPH, the protein stability index was found to be 4.45. In the case of LPVETLGPASRMDPESERALQQPH it was 4.45; in that of LPVETLGPASRMDPYSERALQAPH, 3.95. As to LPVETLGPASRMDPKSERALQAPH, the protein stability index was 4.04. As for LPVETLGPASRMDPWSERALQAPH, the protein stability index came to 3.1. In the case of LPVETLGPASRMDPMSERALQAPH it was 3.48; in that of LPVETLGPASRMDPLSERALQAPH, 4.03; in that of LPVETLGPASRMDPSSERALQAPH, 3.81. Consider LPVETLGPASRMDPHSERALQAPH, for which the protein stability index is 4.13. For the variant LPVETLGPASRMDPNSERALQAPH, the protein stability index came to 4.47.

Take LPVETLGPASRMDPQSERALQAPH: the protein stability index came out at 4.26. Regarding LPVETLGPASRMDPTSERALQAPH, the protein stability index was found to be 4.02. Take LPVETLGPASRMDPESEGALQAPH: the protein stability index turned out to be 4.66. As for LPVETLGPASRMDPESEYALQAPH, the protein stability index turned out to be 3.7.

For the variant LPVETLGPASRMDPESEIALQAPH, the protein stability index came to 4.29.

In the case of LPVETLGPASRMDPESEKALQAPH, the protein stability index was 4.6. As to LPVETLGPASRMDPESEQALQAPH, the protein stability index was determined as 4.55. As to LPVETLGPASRMDPESELALQAPH, the protein stability index is 3.69. Turning to LPVETLGPASRMDPESEPALQAPH, the protein stability index worked out at 4.18.

Take LPVETLGPASRMDPESEHALQAPH: the protein stability index turned out to be 4.77. Regarding LPVETLGPASRMDPESESALQAPH, the protein stability index worked out at 4.19.

Regarding LPVETLGPASRMDPESEEALQAPH, the protein stability index is 4.47. Regarding LPVETLGPASRMDPESEDALQAPH, the protein stability index is 4.44. With LPVETLGPASRMDPESEMALQAPH, the protein stability index is 4.73. As for LPVETLGPASRMDPESEFALQAPH, the protein stability index amounted to 4.07. In the case of LPVETLGPASRMDPESECALQAPH it was 4.12; in that of IPVETLGPASRMDPESERALQAPH, 4.42; in that of TPVETLGPASRMDPESERALQAPH, 4.64. On to KPVETLGPASRMDPESERALQAPH, for which the protein stability index is 5.15. In the case of PPVETLGPASRMDPESERALQAPH it was 5.09; in that of LPVETLGPASRMAPESERALQAPH, 4.61; in that of LPVETLGPASRMVPESERALQAPH, 4.38. Turning to LPVETLGPASRMQPESERALQAPH, the protein stability index was found to be 3.7. With LPVETLGPASRMHPESERALQAPH, the protein stability index stood at 3.83. Consider LPVETLGPASRMYPESERALQAPH, for which the protein stability index came out at 3.73. Consider LPVETLGPASRMLPESERALQAPH, for which the protein stability index is 3.75. For LPVETLGPASRMDPESERALNAPH, the protein stability index was 4.28. In the case of LPVETLGPASRMDPESERALFAPH it was 3.8. For the variant LPVETLGPASRMDPESERALIAPH, the protein stability index came to 4.09. On to LPVETLGPASRMDPESERALVAPH, for which the protein stability index was 4.39.

On to LPVETLGPASRMDPESERALCAPH, for which the protein stability index is 4.14. Regarding LPVETLGPASRMDPESERALTAPH, the protein stability index was 4.55. LPVETLGPASRMDPESERALPAPH: the protein stability index was determined as 4.53.

As to LPEETLGPASRMDPESERALQAPH, the protein stability index was 5.36.

Turning to LPNETLGPASRMDPESERALQAPH, the protein stability index is 5.42. The figure for LPKETLGPASRMDPESERALQAPH is 5.38; for LPAETLGPASRMDPESERALQAPH it is 4.73; for LPCETLGPASRMDPESERALQAPH it is 4.61. Consider LPTETLGPASRMDPESERALQAPH, for which the protein stability index was found to be 5.56. On to LPVETLGPASRMDPESERQLQAPH, for which the protein stability index was 4.46.

Regarding LPVETLGPASRMDPESERKLQAPH, the protein stability index was 4.32.

On to LPVETLGPASRMDPESERSLQAPH, for which the protein stability index was determined as 4.19. As for LPVETLGPASRMDPESERPLQAPH, the protein stability index came to 4.71. As for LPVETLGPASRMDPESERDLQAPH, the protein stability index amounted to 4.41.

As for LPVETLGPASYMDPESERALQAPH, the protein stability index came out at 3.67.

As for LPVETLGPASMMDPESERALQAPH, the protein stability index worked out at 3.96. In the case of LPVETLGPASSMDPESERALQAPH it was 4.01; in that of LPVETLGPASLMDPESERALQAPH, 3.66; in that of LPVETLGPASWMDPESERALQAPH, 3.7. In the case of LPVETLGPASNMDPESERALQAPH it was 4.4; in that of LPVETLGHASRMDPESERALQAPH, 4.51; in that of LPVETLGQASRMDPESERALQAPH, 5.1. In the case of LPVETLGLASRMDPESERALQAPH it was 4.99; in that of LPVETLGYASRMDPESERALQAPH, 4.67; in that of LPVETLGFASRMDPESERALQAPH, 4.19. On to LPVETLGEASRMDPESERALQAPH, for which the protein stability index turned out to be 5.52. For the variant LPVETLGKASRMDPESERALQAPH, the protein stability index turned out to be 4.39. In the case of LPVETLGPASRMDRESERALQAPH it was 4.19; in that of LPVETLGPASRMDNESERALQAPH, 4; in that of LPVETLGPASRMDMESERALQAPH, 4.04. As for LPVETLGPASRMDQESERALQAPH, the protein stability index worked out at 4.75. Turning to LPVETLGPASRMDCESERALQAPH, the protein stability index stood at 4.13. Consider LPVETLGPASRMDAESERALQAPH, for which the protein stability index stood at 4.62. Turning to LPVETLGPASRMDGESERALQAPH, the protein stability index stood at 3.56. Take LPVETLGPASRMDHESERALQAPH: the protein stability index was 3.61. As to LPVETLGPASRMDDESERALQAPH, the protein stability index came out at 4.44. The figure for LPVETLLPASRMDPESERALQAPH is 5.23; for LPVETLQPASRMDPESERALQAPH it is 4.99.
